# According to article PMC3989777 (Cell Reports, 2014):
# Where a SMILES comes first, the peptide text is derived from it. Where no end group is shown, it is not given here. [ ]: non-standard residue; d: D form. pS = N[C@@H](COP(=O)(O)O)C(=O)O
# What was measured:
# PIH1D1 (1-180) = PIH1D1 (1-180) (Homo sapiens, UniProt Q9NWS0); assay: ITC of phosphopeptide binding to PIH1D1 1-180
# PIH1D1 1–180 = PIH1D1 1–180 (human, UniProt Q9NWS0 1-180); assay: ITC
# Sequence of PIH1D1 1–180 (Q9NWS0 1-180): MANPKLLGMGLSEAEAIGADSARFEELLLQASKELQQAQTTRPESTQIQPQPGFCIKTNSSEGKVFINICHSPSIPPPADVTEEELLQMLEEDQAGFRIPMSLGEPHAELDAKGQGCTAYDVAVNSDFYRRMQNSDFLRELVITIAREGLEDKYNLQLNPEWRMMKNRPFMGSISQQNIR
# Sequence of PIH1D1 (1-180) (Q9NWS0 1-180): as above
Molecule,higher affinity relative to the TEL2 peptide phosphorylated on Ser491 (PIH1D1 (1-180)),Kd (PIH1D1 1–180) [µM]
CC(C)C[C@H](NC(=O)[C@H](CC(=O)O)NC(=O)[C@H](COP(=O)(O)O)NC(=O)[C@H](CC(=O)O)NC(=O)[C@H](CO)NC(=O)CNC(=O)[C@H](C)NC(=O)[C@@H](N)Cc1ccc(O)cc1)C(=O)N[C@@H](CC(=O)O)C(=O)N[C@@H](COP(=O)(O)O)C(=O)N[C@@H](CC(=O)O)C(=O)N[C@@H](CC(=O)O)C(=O)N[C@@H](CCC(=O)O)C(=O)N[C@@H](Cc1ccccc1)C(=O)N[C@H](C(=O)N1CCC[C@H]1C(=O)N[C@@H](Cc1ccc(O)cc1)C(N)=O)C(C)C (H-YAGSD[pS]DLD[pS]DDEFVPY-NH2),2- to 3 fold,–
"YAGSDSDLD[pS]DDEFVPY (also: phosphoserine at Ser491, place not mappable) [TEL2 peptide phosphorylated on Ser491]",–,3.5
RPNESD[pS]DDLDDY [ECD peptide RPNESDpS505DDLDDY],–,16
